In PMC7550751, “Application of Force to a Syndecan-4 Containing Complex With Thy-1–αVβ3 Integrin Accelerates Neurite Retraction” (Frontiers in Molecular Biosciences, 2020):

Legend:
[1] = target: Commercially purified human Syndecan (ectodomain)-4-Fc (UniProt P31431); assay: optical tweezers (miniTweezers) force-ramp adhesion frequency assay; conditions: loading rate 10 pN/s; Hepes buffer (10 mM Hepes, pH 7.4) containing 100 mM NaCl and 1 mM MgCl2 at 25°C; parent: est. 0.79; read off a plot
Thy-1-Fc wild type = target: T1, Thy-1-Fc wild type (UniProt P01831 20-131); assay: optical tweezers force spectroscopy (constant-force bond lifetime assay); miniTweezers; Thy-1-Fc on the 2.1 μm bead held by a micropipette; αVβ3-Fc, Syndecan-4-Fc or both on the 3.1 μm trapped bead (controls with TRAIL-R2-Fc added); constant forces 10, 20, 30, 40 and 50 pN; lifetimes fitted to the Bell model for values at zero force; 10 mM Hepes pH 7.4, 100 mM NaCl, 1 mM MgCl2, 25°C; conditions: both partners purified
T1 construct: In the functional rows m1 stands for Thy-1 on the surface of CAD neuronal cells; also called Thy-1(RLD)-Fc; CD90; source: purified; obtained as previously reported (Schneider, 2000; Leyton et al., 2001)
T1 sequence (looked up): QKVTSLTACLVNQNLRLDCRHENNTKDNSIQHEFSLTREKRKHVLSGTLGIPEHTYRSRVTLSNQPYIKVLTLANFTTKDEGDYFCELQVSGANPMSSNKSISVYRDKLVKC

[2] = target: T2, Commercially purified human Syndecan (ectodomain)-4-Fc, P31431; assay: optical tweezers (miniTweezers) force-ramp adhesion frequency assay; conditions: chain shown with the change; loading rate 10 pN/s; Hepes buffer (10 mM Hepes, pH 7.4) containing 100 mM NaCl and 1 mM MgCl2 at 25°C; parent: est. 0.79; read off a plot
T2 chain: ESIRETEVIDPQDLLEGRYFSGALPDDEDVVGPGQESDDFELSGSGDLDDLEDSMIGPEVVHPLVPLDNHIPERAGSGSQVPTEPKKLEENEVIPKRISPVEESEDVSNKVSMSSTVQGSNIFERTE

Molecule | bond lifetime at zero force (τ0) (Thy-1-Fc wild type) [s] | further results
Thy-1-Fc wild type (from UniProt P01831) AEAAA | – | other: adhesion frequency [1]: 0.4
Recombinant αVβ3-Fc integrin (Fc fusion, integrin αV, ectodomain; integrin β3, ectodomain; Construct: Burgos-Bravo et al., 2018; also called αVβ3 integrin; source: HEK293T, transiently transfected, secreted into serum-free medium; purified as published (Burgos-Bravo et al., 2018) for optical tweezers; used as medium in the neurite retraction assay) chain 1: FNLDVDSPAEYSGPEGSYFGFAVDFFVPSASSRMFLLVGAPKANTTQPGIVEGGQVLKCDWSSTRRCQPIEFDATGNRDYAKDDPLEFKSHQWFGASVRSKQDKILACAPLYHWRTEMKQEREPVGTCFLQDGTKTVEYAPCRSQDIDADGQGFCQGGFSIDFTKADRVLLGGPGSFYWQGQLISDQVAEIVSKYDPNVYSIKYNNQLATRTAQAIFDDSYLGYSVAVGDFNGDGIDDFVSGVPRAARTLGMVYIYDGKNMSSLYNFTGEQMAAYFGFSVAATDINGDDYADVFIGAPLFMDRGSDGKLQEVGQVSVSLQRASGDFQTTKLNGFEVFARFGSAIAPLGDLDQDGFNDIAIAAPYGGEDKKGIVYIFNGRSTGLNAVPSQILEGQWAARSMPPSFGYSMKGATDIDKNGYPDLIVGAFGVDRAILYRARPVITVNAGLEVYPSILNQDNKTCSLPGTALKVSCFNVRFCLKADGKGVLPRKLNFQVELLLDKLKQKGAIRRALFLYSRSPSHSKNMTISRGGLMQCEELIAYLRDESEFRDKLTPITIFMEYRLDYRTAADTTGLQPILNQFTPANISRQAHILLDCGEDNVCKPKLEVSVDSDQKKIYIGDDNPLTLIVKAQNQGEGAYEAELIVSIPLQADFIGVVRNNEALARLSCAFKTENQTRQVVCDLGNPMKAGTQLLAGLRFSVHQQSEMDTSVKFDLQIQSSNLFDKVSPVVSHKVDLAVLAAVEIRGVSSPDHVFLPIPNWEHKENPETEEDVGPVVQHIYELRNNGPSSFSKAMLHLQWPYKYNNNTLLYILHYDIDGPMNCTSDMEINPLRIKISSLQTTEKNDTVAGQGERDHLITKRDLALSEGDIHTLGCGVAQCLKIVCQVGRLDRGKSAILYVKSLLWTETFMNKENQNHSYSLKSSASFNVIEFPYKNLPIEDITNSTLVTTNVTWGIQPAPMPV chain 2: GPNICTTRGVSSCQQCLAVSPMCAWCSDEALPLGSPRCDLKENLLKDNCAPESIEFPVSEARVLEDRPLSDKGSGDSSQVTQVSPQRIALRLRPDDSKNFSIQVRQVEDYPVDIYYLMDLSYSMKDDLWSIQNLGTKLATQMRKLTSNLRIGFGAFVDKPVSPYMYISPPEALENPCYDMKTTCLPMFGYKHVLTLTDQVTRFNEEVKKQSVSRNRDAPEGGFDAIMQATVCDEKIGWRNDASHLLVFTTDAKTHIALDGRLAGIVQPNDGQCHVGSDNHYSASTTMDYPSLGLMTEKLSQKNINLIFAVTENVVNLYQNYSELIPGTTVGVLSMDSSNVLQLIVDAYGKIRSKVELEVRDLPEELSLSFNATCLNNEVIPGLKSCMGLKIGDTVSFSIEAKVRGCPQEKEKSFTIKPVGFKDSLIVQVTFDCDCACQAQAEPNSHRCNNGNGTFECGVCRCGPGWLGSQCECSEEDYRPSQQDECSPREGQPVCSQRGECLCGQCVCHSSDFGKITGKYCECDDFSCVRYKGEMCSGHGQCSCGDCLCDSDWTGYYCNCTTRTDTCMSSNGLLCSGRGKCECGSCVCIQPGSYGDTCEKCPTCPDACTFKKECVECKKFDRGALHDENTCNRYCRDEIESVKELKDTGKDAVNCTYKNEDDCVVRFQYYEDSSGKSILYVVEEPECPKGPD | 6.79 ± 1.49 | –
αVβ3-Fc + Syndecan-4-Fc (both on one bead) (complex, integrin αV, ectodomain, as in m5; integrin β3, ectodomain, as in m5; Syndecan-4, human, ectodomain, as in m6; Not a complex formed beforehand: m5 and m6 were put together on bead 2 and met Thy-1-Fc on bead 1; also called αVβ3 integrin + Syndecan-4; source: αVβ3-Fc: HEK293T, purified; Syndecan-4-Fc: commercially purified; both attached to one protein G-coated bead; copies: + +) chain 1: FNLDVDSPAEYSGPEGSYFGFAVDFFVPSASSRMFLLVGAPKANTTQPGIVEGGQVLKCDWSSTRRCQPIEFDATGNRDYAKDDPLEFKSHQWFGASVRSKQDKILACAPLYHWRTEMKQEREPVGTCFLQDGTKTVEYAPCRSQDIDADGQGFCQGGFSIDFTKADRVLLGGPGSFYWQGQLISDQVAEIVSKYDPNVYSIKYNNQLATRTAQAIFDDSYLGYSVAVGDFNGDGIDDFVSGVPRAARTLGMVYIYDGKNMSSLYNFTGEQMAAYFGFSVAATDINGDDYADVFIGAPLFMDRGSDGKLQEVGQVSVSLQRASGDFQTTKLNGFEVFARFGSAIAPLGDLDQDGFNDIAIAAPYGGEDKKGIVYIFNGRSTGLNAVPSQILEGQWAARSMPPSFGYSMKGATDIDKNGYPDLIVGAFGVDRAILYRARPVITVNAGLEVYPSILNQDNKTCSLPGTALKVSCFNVRFCLKADGKGVLPRKLNFQVELLLDKLKQKGAIRRALFLYSRSPSHSKNMTISRGGLMQCEELIAYLRDESEFRDKLTPITIFMEYRLDYRTAADTTGLQPILNQFTPANISRQAHILLDCGEDNVCKPKLEVSVDSDQKKIYIGDDNPLTLIVKAQNQGEGAYEAELIVSIPLQADFIGVVRNNEALARLSCAFKTENQTRQVVCDLGNPMKAGTQLLAGLRFSVHQQSEMDTSVKFDLQIQSSNLFDKVSPVVSHKVDLAVLAAVEIRGVSSPDHVFLPIPNWEHKENPETEEDVGPVVQHIYELRNNGPSSFSKAMLHLQWPYKYNNNTLLYILHYDIDGPMNCTSDMEINPLRIKISSLQTTEKNDTVAGQGERDHLITKRDLALSEGDIHTLGCGVAQCLKIVCQVGRLDRGKSAILYVKSLLWTETFMNKENQNHSYSLKSSASFNVIEFPYKNLPIEDITNSTLVTTNVTWGIQPAPMPV chain 2: GPNICTTRGVSSCQQCLAVSPMCAWCSDEALPLGSPRCDLKENLLKDNCAPESIEFPVSEARVLEDRPLSDKGSGDSSQVTQVSPQRIALRLRPDDSKNFSIQVRQVEDYPVDIYYLMDLSYSMKDDLWSIQNLGTKLATQMRKLTSNLRIGFGAFVDKPVSPYMYISPPEALENPCYDMKTTCLPMFGYKHVLTLTDQVTRFNEEVKKQSVSRNRDAPEGGFDAIMQATVCDEKIGWRNDASHLLVFTTDAKTHIALDGRLAGIVQPNDGQCHVGSDNHYSASTTMDYPSLGLMTEKLSQKNINLIFAVTENVVNLYQNYSELIPGTTVGVLSMDSSNVLQLIVDAYGKIRSKVELEVRDLPEELSLSFNATCLNNEVIPGLKSCMGLKIGDTVSFSIEAKVRGCPQEKEKSFTIKPVGFKDSLIVQVTFDCDCACQAQAEPNSHRCNNGNGTFECGVCRCGPGWLGSQCECSEEDYRPSQQDECSPREGQPVCSQRGECLCGQCVCHSSDFGKITGKYCECDDFSCVRYKGEMCSGHGQCSCGDCLCDSDWTGYYCNCTTRTDTCMSSNGLLCSGRGKCECGSCVCIQPGSYGDTCEKCPTCPDACTFKKECVECKKFDRGALHDENTCNRYCRDEIESVKELKDTGKDAVNCTYKNEDDCVVRFQYYEDSSGKSILYVVEEPECPKGPD chain 3: ESIRETEVIDPQDLLEGRYFSGALPDDEDVVGPGQESDDFELSGSGDLDDLEDSMIGPEVVHPLVPLDNHIPERAGSGSQVPTEPKKLEENEVIPKRISPVEESEDVSNKVSMSSTVQGSNIFERTE | 11.6 ± 1.34 | –
Thy-1-Fc wild type, P01831 RLE (protein) QKVTSLTACLVNQNLRLECRHENNTKDNSIQHEFSLTREKRKHVLSGTLGIPEHTYRSRVTLSNQPYIKVLTLANFTTKDEGDYFCELQVSGANPMSSNKSISVYRDKLVKC | – | other: adhesion frequency [2]: 0.81
Commercially purified human Syndecan (ectodomain)-4-Fc (Fc fusion, UniProt P31431 19-145, looked up, Syndecan-4, human, ectodomain; Heparan sulfate proteoglycan; also called Syndecan-4-Fc; Synd-4-Fc) ESIRETEVIDPQDLLEGRYFSGALPDDEDVVGPGQESDDFELSGSGDLDDLEDSMIGPEVVHPLVPLDNHIPERAGSGSQVPTEPKKLEENEVIPKRISPVEESEDVSNKVSMSSTVQGSNIFERTE | 3.06 ± 0.22 | –
